Experimental data: the DeepSol protein solubility set

Assay: soluble on expression in E. coli; label from the status in PepcDB or PDB records

Row | Sequence | soluble on expression in E. coli
1 | MSLRLLRVVGCPEWVIDHSLAVRKKALELSRELPVDMKLVEEGAILHDIGRCRTSGVEHAVEGARILEGFGYPPEVVRIVERHVGAGIPPEEAKALGLPPGDYMPRTLEEKIVAHADNLINGSDEVDIDFVIKKWSDRLGADHPSIESLKRLHEELLGHL | not soluble
2 | MGHHHHHHSHGATLIRDRLKTEPFEENSFLEQFMIEKLPEACSIGDGKPFVMNLQDLYMAVTTQEVQVGQKHQGAGDPHTSNSASLQGIDSQCVNQPEQLVSSAPTLSAPEKESTALCRDLSCQRSRGRSQGVSSVNLLWPQLLRMDLENSFQASP | not soluble
3 | MGSDKIHHHHHHMAIKNVSIVYPNRFGGGIACLAVHVLTSHLNKYRDISANAYFIENYSKIKNSDAILITLQYENDYFNVVKIVKELKAQNPNAIFIAGGPCAISNPLPIQEFFDVFVVGEIEGTDTMYQLINGNFEIPGVYVPKTYNNEKIKRIYPKKLGIDDYPISQVTHESGAYGKAYLLEIGRGCIRNCKFCMAKCIYAPPRYRKIEDLKHLVDEGLKNTDADKVSLIAPSVSDYRYVLDLCAHISEKNVSISPSSLRADTITDELLEYLNLKTLTIAPEAGSEVLRKKIDKGITEENILNAVDIAKTHGISTVKLYYMVGFPDETEEDIEEIINLTKKIKDNVRKVDVSINPMVPKPHTPFEDFEFDMDSKTKIKYIEKSLRKIKVSVDFEKFNSMVAQTVLARGGSELSKVLNESRNTIELIKNVDLDNYINKIEEKPWDFIEI | not soluble
4 | MVTTLTPVICESAPAAAASYSHAMKVNNLIFLSGQIPVTPDNKLVEGSIADKAEQVIQNIKNVLEASNSSLDRVVKVNIFLADINHFAEFNSVYAKYFNTHKPARSCVAVAALPLGVDMEMEAIAAERD | soluble
5 | MGSDKIHHHHHHMSFVSYAQNFEDVMLWRALRHIKNGYYIDVGAFSADEDSVTRAFYDQGWSGINIEPNPKYHEELVARRDRDINLRVAVSDRAEDRALYVIDDTGLTTLEPDIAEMHREKGFSKIDVVVPALTLEEIWTTHVPQDQDVHFLKIDVEGHELPVIKGLDWDRHRPWIVVVESTLPATQQLSETGIVEALAKADYEAVYWDGLNRYYVAKERAELTKYFDDPPNVFDGFRRSSEVEFEQRALQAEAELYLEREHVVRISKENWDHVHHALEVKFSALQEAMAAEAQAARRDVTQELVELRMQLSKQGMTSSFWTRFFFRPTGKPKKALRRLLFHTNGKPRGIFRNRVLKSNGQPRPAFLRWMASAEYQQLRRAVKVAASDESQHVLESGASTLSQNEGVFVGVLQSARTEKSH | not soluble
6 | MAHHHHHHMNKHICIYGGSFDPITHAHEMVLAEVSSLDWVDEIWVVLCRCRNDKHLTEFQHRHNMFSLIMNNNSPKMLKNKIFLKDIECKETTTPTYDLLKMQKEKYPNYTFYFTIGSDLLNDIFFWDNGEKLVAENNFIIVERGNFKIDENVLKKFPSYYLIKIENMSFINYISSSDARKMLSQKNNSEDLQKYIHPVIINYIKEHDLYDNNSA | soluble
7 | MQVDADLRPILGPQLVRLDPMRVKQLQDPIVYEAIDNLAKLSAHCLQLRTPLTTCEKLINSDSTLYLSWKYDEEEKVSRLMGFAKVGRKKLFLYDSQMQTYEGEILCLLDFYVHFSCQRQGVGQQILDYMFSQEHTEPYQLALDNPSVTLLGFMSQKYGLIKPVWQNTNFVVFEELFLALSAENGIEKPPPDGWRRPMTPRRLGTGMTDTRWLQHAVSGHQSKGNAMAAPVDADMTPQGALSNRAHQAKARKAHILSSKPLW | soluble
8 | MGSDKIHHHHHHMFKIVYPNAKDFFSFINSITNVTDSIILNFTEDGIFSRHLTEDKVLMAIMRIPKDVLSEYSIDSPTSVKLDVSSVKKILSKASSKKATIELTETDSGLKIIIRDEKSGAKSTIYIKAEKGQVEQLTEPKVNLAVNFTTDESVLNVIAADVTLVGEEMRISTEEDKIKIEAGEEGKRYVAFLMKDKPLKELSIDTSASSSYSAEMFKDAVKGLRGFSAPTMVSFGENLPMKIDVEAVSGGHMIFWIAPRL | not soluble
9 | IGQVNYNIGFNMADSRSFVDKYPNKSKSLSTYYKDQELGAIWGYVTHGIAKSQSEMDEWTKDNKPSWGSGWGEGDIMFEDLNGDKVINEGANTVDDPGDRKIIGNSTPRFRFGLDLGVEWKGIDFSMFWQGVAKRDLWLDGPMFWGISGGEWQSTGLKEHLDYYRPENTTSVFGPNTNAYFPKMYMSKDMNQKVQTRYLQNGAYARLKNIQLGYTFPTQIINKLHMQKLRVYVSAENVLTITSLPSGFDPETTYSNYSDGNSGKTYPLQTTISFGLNATF | not soluble
10 | SLDAAVGDVIVTLGADLSESDKQKVLDEMNVPDNATTVTVTNKEEHEYLGKYISNAQIGSRAISSSSITIAKKGSGLNVETHNISGITDEMYLNALMTAGVKDAKVYVTAPFEVSGTAALTGLIKAYEVSSDEAISEDVKQVANQELVTTSELGDKIGNENAAALIAKIKEEFAKNGVPDNKADIEKQVDDAASDLNVTLTDSQKNQLVSLFNKMKNADIDWGQVSDQLDKAKDKITKFIESDEGKNFIQKVIDFFVSIWNAIVSIFK | soluble
11 | MKANRWFGMAQPKSGKMNMNILHQEELIAQKKREIEARMEQKARQSHVPSPQPPHPGEIADAHNSCISNKFANDGSFLQQFLKLQKAQTSTDSAPRAPPSMPTPSSLKKPLVLSKRTGLGLSSPTGPVKNYSHAKQLPVAHRPSVFQSPDDDEEEDYEQWLEIKVSPPEGAETRRVIEKLARFVAEGGPELEKVAMEDYKDNPAFTFLHDKNSREFLYYRRKVAEIRKEAQKPQAATQKVSPPEDEEAKNLAEKLARFIADGGPEVETIALQNNRENQAFSFLYDPNSQGYRYYRQKLDEFRKAKAGSTGSFPAPAPNPSLRRKSAPEALSGAVPPITACPTPVAPAPAVNPTPSIPGKPTATAAVKRKRKSRWGPEEDKVEFHLLNWHRGT | soluble
